Source: article PMC9352680, “A comprehensive thermodynamic model for RNA binding by the Saccharomyces cerevisiae Pumilio protein PUF4”

Target: T1, PUF4 RNA-binding domain (Saccharomyces cerevisiae, UniProt P25339 537-888)
T1 sequence: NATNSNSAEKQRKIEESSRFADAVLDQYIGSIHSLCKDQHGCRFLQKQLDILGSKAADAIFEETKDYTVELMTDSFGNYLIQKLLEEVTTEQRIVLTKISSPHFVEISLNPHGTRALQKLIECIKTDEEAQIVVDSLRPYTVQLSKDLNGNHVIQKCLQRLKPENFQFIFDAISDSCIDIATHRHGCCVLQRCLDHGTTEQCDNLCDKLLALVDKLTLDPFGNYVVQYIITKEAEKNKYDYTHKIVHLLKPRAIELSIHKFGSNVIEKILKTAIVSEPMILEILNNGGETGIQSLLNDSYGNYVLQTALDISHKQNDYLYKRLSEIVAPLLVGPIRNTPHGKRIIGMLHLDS
Experiment: Mg; RNA-MaP; 20 mM Na-HEPES pH 7.4, 30 mM KOAc, 0.75 mM MgCl2, 0.1% Tween-20, 5% glycerol, 0.1 mg/mL BSA, 2 mM DTT; 25 C; 0.0125-409.6 nM protein
Settings: tags: N-His6-TEV cleaved; C-SNAP kept, Cy3B-labelled; label: tethered on chip by stalled RNA polymerase

Row | Binder | Kd
1 | Ie_S2_P5E.1_K5.1_C5.1_H5.1_A5.1_F5.1_[+8CCCTT]_T5.1 (ssRNA) RNA: UUUGAUUAAUAUGAUAUCGUUCUUUCUUGUAUUAUCCCUUUAUUCUUUCUCGAUAUCAUAUUAAUCUUU | 15.2 nM
2 | Ie_S2_P5E.1_K5.1_C5.1_H5.1_A5.1_F5.1_[+9CTC]_T5.1 (ssRNA) RNA: UUUGAUUAAUAUGAUAUCGUUCUUUCUUGUAUUAUUCUCAUUCUUUCUCGAUAUCAUAUUAAUCUUU | 22.6 nM
3 | Ie_S2_P5E.1_K5.1_C5.1_H5.1_A5.1_F5.1_[+9TCC]_T5.1 (ssRNA) RNA: UUUGAUUAAUAUGAUAUCGUUCUUUCUUGUAUUAUUUCCAUUCUUUCUCGAUAUCAUAUUAAUCUUU | 15.6 nM
4 | Ib_S2_P3E.1_K3.1_C3.1_H3.1_[G2C]_[A4T]_A3.1_F3.1_T3.1 (ssRNA) RNA: UUUGAUUAAUAUGAUAUCGUUCUUUCUUCUUUAUAUUCUUUCUCGAUAUCAUAUUAAUCUUU | 1670 nM
5 | Ie_S2_P5E.1_K5.1_C5.1_H5.1_A5.1_F5.1_[+9TTC]_T5.1 (ssRNA) RNA: UUUGAUUAAUAUGAUAUCGUUCUUUCUUGUAUUAUUUUCAUUCUUUCUCGAUAUCAUAUUAAUCUUU | 14.1 nM
6 | Ie_S2_P5E.1_K5.1_C5.1_H5.1_A5.1_F5.1_[+9TCTC]_T5.1 (ssRNA) RNA: UUUGAUUAAUAUGAUAUCGUUCUUUCUUGUAUUAUUUCUCAUUCUUUCUCGAUAUCAUAUUAAUCUUU | 10.2 nM
7 | Ie_S2_P5E.1_K5.1_C5.1_H5.1_A5.1_F5.1_[+9CCTC]_T5.1 (ssRNA) RNA: UUUGAUUAAUAUGAUAUCGUUCUUUCUUGUAUUAUUCCUCAUUCUUUCUCGAUAUCAUAUUAAUCUUU | 16.4 nM
8 | Ie_S2_P5E.1_K5.1_C5.1_H5.1_A5.1_F5.1_[+9TTCC]_T5.1 (ssRNA) RNA: UUUGAUUAAUAUGAUAUCGUUCUUUCUUGUAUUAUUUUCCAUUCUUUCUCGAUAUCAUAUUAAUCUUU | 13.2 nM
9 | Ie_S2_P5E.1_K5.1_C5.1_H5.1_A5.1_F5.1_[+9CCCT]_T5.1 (ssRNA) RNA: UUUGAUUAAUAUGAUAUCGUUCUUUCUUGUAUUAUUCCCUAUUCUUUCUCGAUAUCAUAUUAAUCUUU | 8.29 nM
10 | Ie_S2_P5E.1_K5.1_C5.1_H5.1_A5.1_F5.1_[+9CTCTC]_T5.1 (ssRNA) RNA: UUUGAUUAAUAUGAUAUCGUUCUUUCUUGUAUUAUUCUCUCAUUCUUUCUCGAUAUCAUAUUAAUCUUU | 13.7 nM
11 | Ie_S2_P5E.1_K5.1_C5.1_H5.1_A5.1_F5.1_[+9TCTCT]_T5.1 (ssRNA) RNA: UUUGAUUAAUAUGAUAUCGUUCUUUCUUGUAUUAUUUCUCUAUUCUUUCUCGAUAUCAUAUUAAUCUUU | 6.98 nM
12 | Ie_S2_P5E.1_K5.1_C5.1_H5.1_A5.1_F5.1_[+9CCTCT]_T5.1 (ssRNA) RNA: UUUGAUUAAUAUGAUAUCGUUCUUUCUUGUAUUAUUCCUCUAUUCUUUCUCGAUAUCAUAUUAAUCUUU | 7.72 nM
13 | Ie_S2_P5E.1_K5.1_C5.1_H5.1_A5.1_F5.1_[+9TTCCT]_T5.1 (ssRNA) RNA: UUUGAUUAAUAUGAUAUCGUUCUUUCUUGUAUUAUUUUCCUAUUCUUUCUCGAUAUCAUAUUAAUCUUU | 7.79 nM
14 | Ie_S2_P5E.1_K5.1_C5.1_H5.1_A5.1_F5.1_[+9CCCTT]_T5.1 (ssRNA) RNA: UUUGAUUAAUAUGAUAUCGUUCUUUCUUGUAUUAUUCCCUUAUUCUUUCUCGAUAUCAUAUUAAUCUUU | 12.8 nM
15 | Ib_S2_P3E.1_K3.1_C3.1_H3.1_[G2T]_[A4T]_A3.1_F3.1_T3.1 (ssRNA) RNA: UUUGAUUAAUAUGAUAUCGUUCUUUCUUUUUUAUAUUCUUUCUCGAUAUCAUAUUAAUCUUU | > 2300 nM
16 | Ie_S2_P5E.1_K5.1_C5.1_H5.1_A5.1_F5.1_[+10T]_T5.1 (ssRNA) RNA: UUUGAUUAAUAUGAUAUCGUUCUUUCUUGUAUUAUUAUUUCUUUCUCGAUAUCAUAUUAAUCUUU | 1.76 nM
17 | Ie_S2_P5E.1_K5.1_C5.1_H5.1_A5.1_F5.1_[+10TT]_T5.1 (ssRNA) RNA: UUUGAUUAAUAUGAUAUCGUUCUUUCUUGUAUUAUUAUUUUCUUUCUCGAUAUCAUAUUAAUCUUU | 2.29 nM
18 | Ie_S2_P5E.1_K5.1_C5.1_H5.1_A5.1_F5.1_[+10TTC]_T5.1 (ssRNA) RNA: UUUGAUUAAUAUGAUAUCGUUCUUUCUUGUAUUAUUAUUCUUCUUUCUCGAUAUCAUAUUAAUCUUU | 2.01 nM
19 | Ie_S2_P5E.1_K5.1_C5.1_H5.1_A5.1_F5.1_[+10TCT]_T5.1 (ssRNA) RNA: UUUGAUUAAUAUGAUAUCGUUCUUUCUUGUAUUAUUAUCUUUCUUUCUCGAUAUCAUAUUAAUCUUU | 3.7 nM
20 | Ie_S2_P5E.1_K5.1_C5.1_H5.1_A5.1_F5.1_[+10TTT]_T5.1 (ssRNA) RNA: UUUGAUUAAUAUGAUAUCGUUCUUUCUUGUAUUAUUAUUUUUCUUUCUCGAUAUCAUAUUAAUCUUU | 1.17 nM
21 | Ie_S2_P5E.1_K5.1_C5.1_H5.1_A5.1_F5.1_[+10TTCC]_T5.1 (ssRNA) RNA: UUUGAUUAAUAUGAUAUCGUUCUUUCUUGUAUUAUUAUUCCUUCUUUCUCGAUAUCAUAUUAAUCUUU | 2.02 nM
22 | Ie_S2_P5E.1_K5.1_C5.1_H5.1_A5.1_F5.1_[+10TCTCT]_T5.1 (ssRNA) RNA: UUUGAUUAAUAUGAUAUCGUUCUUUCUUGUAUUAUUAUCUCUUUCUUUCUCGAUAUCAUAUUAAUCUUU | 2.21 nM
23 | Ie_S2_P5E.1_K5.1_C5.1_H5.1_A5.1_F5.1_[+10TTCCT]_T5.1 (ssRNA) RNA: UUUGAUUAAUAUGAUAUCGUUCUUUCUUGUAUUAUUAUUCCUUUCUUUCUCGAUAUCAUAUUAAUCUUU | 1.84 nM
24 | ACAAACCUUUCGUAUAUAUAACAAAC (ssRNA) [Ie_S3_P3E.2_K3.1_C3.2_H3.1_[+1TC]_A3.1_F3.1_T3.2] | 927 nM
25 | ACAAACCUUCCUCGUAUAUAUAACAAAC (ssRNA) [Ie_S3_P3E.2_K3.1_C3.2_H3.1_[+1CCTC]_A3.1_F3.1_T3.2] | 565 nM
26 | Ib_S2_P3E.1_K3.1_C3.1_H3.1_[G2A]_[A4T]_A3.1_F3.1_T3.1 (ssRNA) RNA: UUUGAUUAAUAUGAUAUCGUUCUUUCUUAUUUAUAUUCUUUCUCGAUAUCAUAUUAAUCUUU | > 2300 nM

Row | Binder | Kd
27 | ACAAACCUUUUCCGUAUAUAUAACAAAC (ssRNA) [Ie_S3_P3E.2_K3.1_C3.2_H3.1_[+1TTCC]_A3.1_F3.1_T3.2] | 1200 nM
28 | ACAAACCUUGCCUUAUAUAUAACAAAC (ssRNA) [Ie_S3_P3E.2_K3.1_C3.2_H3.1_[+2CCT]_A3.1_F3.1_T3.2] | 1170 nM
29 | ACAAACCUUGCCUCUUAUAUAUAACAAAC (ssRNA) [Ie_S3_P3E.2_K3.1_C3.2_H3.1_[+2CCTCT]_A3.1_F3.1_T3.2] | 1010 nM
30 | ACAAACCUUGCCCUUUAUAUAUAACAAAC (ssRNA) [Ie_S3_P3E.2_K3.1_C3.2_H3.1_[+2CCCTT]_A3.1_F3.1_T3.2] | 1020 nM
31 | ACAAACUCUCUCGUAUAUUAACAAAC (ssRNA) [Ie_S3_P4E.1_K4.1_C4.1_H4.1_[+1CTCTC]_A4.1_F4.1_T4.1] | 69.5 nM
32 | ACAAACUGCUAUAUUAACAAAC (ssRNA) [Ie_S3_P4E.1_K4.1_C4.1_H4.1_[+2C]_A4.1_F4.1_T4.1] | 672 nM
33 | ACAAACUGCUUAUAUUAACAAAC (ssRNA) [Ie_S3_P4E.1_K4.1_C4.1_H4.1_[+2CT]_A4.1_F4.1_T4.1] | 1800 nM
34 | ACAAACUGCCCUAUAUUAACAAAC (ssRNA) [Ie_S3_P4E.1_K4.1_C4.1_H4.1_[+2CCC]_A4.1_F4.1_T4.1] | 1560 nM
35 | ACAAACUGCUCUAUAUUAACAAAC (ssRNA) [Ie_S3_P4E.1_K4.1_C4.1_H4.1_[+2CTC]_A4.1_F4.1_T4.1] | 1270 nM
36 | ACAAACUGUCCUAUAUUAACAAAC (ssRNA) [Ie_S3_P4E.1_K4.1_C4.1_H4.1_[+3CCT]_A4.1_F4.1_T4.1] | 59.9 nM
37 | Ib_S2_P3E.1_K3.1_C3.1_H3.1_[T3C]_[A4G]_A3.1_F3.1_T3.1 (ssRNA) RNA: UUUGAUUAAUAUGAUAUCGUUCUUUCUUGCGUAUAUUCUUUCUCGAUAUCAUAUUAAUCUUU | 1100 nM
38 | ACAAACUGCUUUAUAUUAACAAAC (ssRNA) [Ie_S3_P4E.1_K4.1_C4.1_H4.1_[+2CTT]_A4.1_F4.1_T4.1] | 896 nM
39 | ACAAACUGCCUCUAUAUUAACAAAC (ssRNA) [Ie_S3_P4E.1_K4.1_C4.1_H4.1_[+2CCTC]_A4.1_F4.1_T4.1] | > 2300 nM
40 | ACAAACUGUCCUCAUAUUAACAAAC (ssRNA) [Ie_S3_P4E.1_K4.1_C4.1_H4.1_[+3CCTC]_A4.1_F4.1_T4.1] | 650 nM
41 | ACAAACUGUCCCUAUAUUAACAAAC (ssRNA) [Ie_S3_P4E.1_K4.1_C4.1_H4.1_[+3CCCT]_A4.1_F4.1_T4.1] | 602 nM
42 | ACAAACUGUACCUCUAUUAACAAAC (ssRNA) [Ie_S3_P4E.1_K4.1_C4.1_H4.1_[+4CCTC]_A4.1_F4.1_T4.1] | 14.7 nM
43 | ACAAACUGUAUUCCUAUUAACAAAC (ssRNA) [Ie_S3_P4E.1_K4.1_C4.1_H4.1_[+4TTCC]_A4.1_F4.1_T4.1] | 9.85 nM
44 | ACAAACUGUAUCCCUAUUAACAAAC (ssRNA) [Ie_S3_P5E.1_K5.1_C5.1_H5.1_A5.1_[+5CCC]_F5.1_T5.1] | 24.3 nM
45 | ACAAACUGUAUAUUCCUAACAAAC (ssRNA) [Ie_S3_P4E.1_K4.1_C4.1_H4.1_A4.1_[+7TCC]_F4.1_T4.1] | 7.23 nM
46 | ACAAACUGUAUAUUCUCUAACAAAC (ssRNA) [Ie_S3_P4E.1_K4.1_C4.1_H4.1_A4.1_[+7TCTC]_F4.1_T4.1] | 6.81 nM
47 | ACAAACUGUAUAUCUCUCUAACAAAC (ssRNA) [Ie_S3_P4E.1_K4.1_C4.1_H4.1_A4.1_[+7CTCTC]_F4.1_T4.1] | 14.6 nM
48 | Ib_S2_P3E.1_K3.1_C3.1_H3.1_[T1C]_A3.1_[T5A]_F3.1_T3.1 (ssRNA) RNA: UUUGAUUAAUAUGAUAUCGUUCUUUCUCGUAAAUAUUCUUUCUCGAUAUCAUAUUAAUCUUU | > 2300 nM
49 | ACAAACUGUAUAUUUCUCAACAAAC (ssRNA) [Ie_S3_P4E.1_K4.1_C4.1_H4.1_A4.1_F4.1_[+8TCTC]_T4.1] | 8.77 nM
50 | ACAAACUGUAUAUUCCCUAACAAAC (ssRNA) [Ie_S3_P4E.1_K4.1_C4.1_H4.1_A4.1_F4.1_[+8CCCT]_T4.1] | 6.57 nM
51 | ACAAACUGUAUAUUAUUCCACAAAC (ssRNA) [Ie_S3_P4E.1_K4.1_C4.1_H4.1_A4.1_F4.1_[+9TTCC]_T4.1] | 0.554 nM
